For experiment [1], the target named is T1, c-Met (UniProt P08581 25-1390, limits assumed).
T1 construct: whole, on cells; Target on cells
The experiment can be described thus: flow cytometry on H292 cells, apparent Kd.

The target in experiment [2] is T2, Human FcRn with a C-terminal biotin on the large subunit (Human, UniProt P55899 24-297; P61769 21-119, C-terminal biotin).
T2 construct: Captured on neutravidin for SPR; also called neonatal Fc receptor
Briefly: SPR, FcRn captured, antibody injected, pH 5.9. Background: SPR reads the build-up and loss of mass on a sensor chip optically.

The target in experiment [3] is T3, CD32a (FcγRIIA), allelic form His131 (UniProt P12318 36-218, limits assumed).
T3 construct: also called CD32aH
T3 sequence (looked up): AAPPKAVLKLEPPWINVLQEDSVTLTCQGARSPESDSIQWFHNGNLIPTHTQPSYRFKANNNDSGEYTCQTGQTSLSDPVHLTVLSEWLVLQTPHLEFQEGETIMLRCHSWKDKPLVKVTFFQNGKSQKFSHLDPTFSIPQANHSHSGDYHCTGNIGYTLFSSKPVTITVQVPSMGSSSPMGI
Briefly: SPR, antibody captured on Protein A, FcγR injected.

For another experiment, the target named is CD64a (FcγRI) (UniProt P12314 16-288, limits assumed). The experiment can be described thus: SPR, antibody captured on Protein A, FcγR injected.
Another experiment has as its target T4, CD32b (FcγRIIB) (UniProt P31994 43-217, limits assumed).
T4 construct: The 'Y' of CD32bY is not explained; also called CD32bY
T4 sequence (looked up): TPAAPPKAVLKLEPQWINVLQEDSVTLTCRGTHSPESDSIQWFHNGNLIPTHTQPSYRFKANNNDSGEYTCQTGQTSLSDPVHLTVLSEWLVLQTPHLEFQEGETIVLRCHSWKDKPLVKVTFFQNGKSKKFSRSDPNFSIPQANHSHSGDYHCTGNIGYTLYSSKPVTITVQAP
Briefly: SPR, antibody captured on Protein A, FcγR injected.

The target of experiment [4] is T5, CD16a (FcγRIIIA), allelic form V158 (UniProt P08637 17-208).
T5 construct: also called CD16aV
The experiment can be described thus: SPR, antibody captured on Protein A, FcγR injected.

Experiment [5] addresses T6, CD32a (FcγRIIA), allelic form Arg131 (UniProt P12318 36-218, limits assumed).
T6 construct: also called CD32aR
T6 sequence (looked up): T3 sequence (looked up) with H132R
The experiment can be described thus: SPR, antibody captured on Protein A, FcγR injected.

The target in experiment [6] is CD16a (FcγRIIIA), allelic form F158 (UniProt P08637 17-208). The experiment can be described thus: SPR, antibody captured on Protein A, FcγR injected.
Experiment [7] addresses T1, c-Met. Briefly: flow cytometry on BT-20 cells, apparent Kd. (In general: In flow cytometry, cells or beads pass a laser one at a time.)
The target in experiment [8] is T1, c-Met. The experiment can be described thus: flow cytometry on EBC-1 cells, apparent Kd.
Experiment [9] has as its target T1, c-Met. Briefly: flow cytometry on EBC-1 cells, apparent Kd. The source holds these as a separate data set.
Experiment [10] concerns the target T1, c-Met. The experiment can be described thus: flow cytometry on EBC-1 cells.

The text below walks through data of US20260042847A1 (Zymeworks, published 2026).

Numbering of substitutions follows the chain as printed.

T1 sequence (P08581 25-1390 limits assumed): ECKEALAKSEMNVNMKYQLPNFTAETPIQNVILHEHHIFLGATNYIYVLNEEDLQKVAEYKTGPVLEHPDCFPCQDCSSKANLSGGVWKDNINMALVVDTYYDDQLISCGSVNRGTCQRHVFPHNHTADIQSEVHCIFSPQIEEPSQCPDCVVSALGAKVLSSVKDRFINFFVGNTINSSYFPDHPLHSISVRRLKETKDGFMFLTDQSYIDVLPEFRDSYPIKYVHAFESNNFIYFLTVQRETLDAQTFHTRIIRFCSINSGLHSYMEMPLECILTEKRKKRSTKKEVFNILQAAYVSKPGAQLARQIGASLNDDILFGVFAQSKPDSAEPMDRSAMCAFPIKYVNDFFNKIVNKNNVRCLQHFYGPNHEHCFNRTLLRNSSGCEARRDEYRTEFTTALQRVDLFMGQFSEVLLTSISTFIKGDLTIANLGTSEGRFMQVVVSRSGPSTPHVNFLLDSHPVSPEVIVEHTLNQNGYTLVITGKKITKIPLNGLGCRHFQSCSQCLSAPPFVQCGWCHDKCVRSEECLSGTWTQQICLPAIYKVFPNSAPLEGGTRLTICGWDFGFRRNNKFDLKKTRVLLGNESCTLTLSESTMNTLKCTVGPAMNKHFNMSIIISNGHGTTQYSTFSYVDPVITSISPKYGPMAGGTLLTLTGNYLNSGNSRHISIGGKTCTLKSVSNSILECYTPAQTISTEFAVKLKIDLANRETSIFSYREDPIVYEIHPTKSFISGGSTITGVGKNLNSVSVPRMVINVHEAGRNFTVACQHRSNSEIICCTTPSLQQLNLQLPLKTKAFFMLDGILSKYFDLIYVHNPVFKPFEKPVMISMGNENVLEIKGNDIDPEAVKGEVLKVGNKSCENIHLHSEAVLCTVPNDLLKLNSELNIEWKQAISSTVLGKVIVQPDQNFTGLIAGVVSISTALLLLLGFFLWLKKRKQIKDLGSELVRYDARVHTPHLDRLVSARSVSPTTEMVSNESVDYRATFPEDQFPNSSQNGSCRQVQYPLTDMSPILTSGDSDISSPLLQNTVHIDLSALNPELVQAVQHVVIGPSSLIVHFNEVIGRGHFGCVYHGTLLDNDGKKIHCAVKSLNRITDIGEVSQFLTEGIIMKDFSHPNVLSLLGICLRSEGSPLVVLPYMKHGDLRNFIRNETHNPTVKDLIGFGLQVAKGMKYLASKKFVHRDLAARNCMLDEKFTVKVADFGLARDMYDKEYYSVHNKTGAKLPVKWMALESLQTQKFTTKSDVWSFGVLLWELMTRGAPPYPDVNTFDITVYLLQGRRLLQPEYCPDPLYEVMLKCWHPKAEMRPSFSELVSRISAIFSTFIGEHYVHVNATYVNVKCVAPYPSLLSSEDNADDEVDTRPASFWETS
CD64a (FcγRI), sequence (P12314 16-288 limits assumed): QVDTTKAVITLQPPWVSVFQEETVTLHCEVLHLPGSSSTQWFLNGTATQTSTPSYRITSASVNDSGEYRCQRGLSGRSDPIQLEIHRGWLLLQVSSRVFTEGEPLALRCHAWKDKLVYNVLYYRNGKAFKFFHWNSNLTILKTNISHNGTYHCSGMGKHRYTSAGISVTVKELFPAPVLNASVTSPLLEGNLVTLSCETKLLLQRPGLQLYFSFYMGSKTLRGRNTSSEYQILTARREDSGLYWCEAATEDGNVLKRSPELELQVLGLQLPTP
T2 sequence (P55899 24-297 limits assumed, chain 1 of 2): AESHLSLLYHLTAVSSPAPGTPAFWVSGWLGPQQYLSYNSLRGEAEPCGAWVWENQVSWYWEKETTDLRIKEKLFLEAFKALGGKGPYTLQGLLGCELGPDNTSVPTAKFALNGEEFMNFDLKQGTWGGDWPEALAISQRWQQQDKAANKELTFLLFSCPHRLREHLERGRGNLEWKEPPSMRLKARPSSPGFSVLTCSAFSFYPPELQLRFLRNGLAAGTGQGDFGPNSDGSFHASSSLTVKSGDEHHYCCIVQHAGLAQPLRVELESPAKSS
T2 sequence (P61769 21-119 limits assumed, chain 2 of 2): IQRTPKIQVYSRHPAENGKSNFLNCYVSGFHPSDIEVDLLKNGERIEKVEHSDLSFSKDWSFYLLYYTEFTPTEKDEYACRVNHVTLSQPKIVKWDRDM
T5 sequence (P08637 17-208 F176V limits assumed): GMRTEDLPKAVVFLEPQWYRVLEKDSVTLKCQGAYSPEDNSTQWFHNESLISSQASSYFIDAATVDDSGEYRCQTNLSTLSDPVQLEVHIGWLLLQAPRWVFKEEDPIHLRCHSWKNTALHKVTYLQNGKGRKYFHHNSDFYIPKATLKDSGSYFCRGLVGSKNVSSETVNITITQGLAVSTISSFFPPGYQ
CD16a (FcγRIIIA), allelic form F158, sequence (P08637 17-208 limits assumed): as the sequence (P08637 17-208 F176V limits assumed) above, with V160F counted along it

B1: v17427 (antibody)
chain 1: QVQLVQSGAEVKKPGASVKVSCKASGYIFTAYTMHWVRQAPGQGLEWMGWIKPNNGLANYAQKFQGRVTMTRDTSISTAYMELSRLRSDDTAVYYCARSEITTEFDYWGQGTLVTVSSASTKGPSVFPLAPSSKSTSGGTAALGCLVKDYFPEPVTVSWNSGALTSGVHTFPAVLQSSGLYSLSSVVTVPSSSLGTQTYICNVNHKPSNTKVDKKVEPKSCDKTHTCPPCPAPELLGGPSVFLFPPKPKDTLMISRTPEVTCVVVDVSHEDPEVKFNWYVDGVEVHNAKTKPREEQYNSTYRVVSVLTVLHQDWLNGKEYKCKVSNKALPAPIEKTISKAKGQPREPQVYVYPPSRDELTKNQVSLTCLVKGFYPSDIAVEWESNGQPENNYKTTPPVLDSDGSFALVSKLTVDKSRWQQGNVFSCSVMHEALHNHYTQKSLSLSPG
chain 2: not shown
chain 3: not shown
As for B1, the Kd is 0.02 nM in the experiment with c-Met [1]; 297 nM in [2]; 410 nM in [3]; 0.0486 nM in the experiment with CD64a (FcγRI); 2630 nM in the experiment with CD32b (FcγRIIB); 461 nM in experiment [4]. The Kd was 588 nM in [5]; 1450 nM in [6]; 0.02 nM with c-Met [7]; 0.14 nM with c-Met [8]; 0.1 nM in the experiment with c-Met [9].

B2: v29001 (antibody)
chain 1: QVQLVQSGAEVKKPGASVKVSCKASGYIFTAYTMHWVRQAPGQGLEWMGWIKPNNGLANYAQKFQGRVTMTRDTSISTAYMELSRLRSDDTAVYYCARSEITTEFDYWGQGTLVTVSSASTKGPSVFPLAPSSKSTSGGTAALGCLVKDYFPEPVTVSWNSGALTSGVHTFPAVLQSSGLYSLSSVVTVPSSSLGTQTYICNVNHKPSNTKVDKKVEPKSCDKTHTCPPCPAPELLGGPSVFLFPPKPKDTLMISRTPEVTCVVVDVSHEDPEVKFNWYVDGVEVHNAKTKPREEQYNSTCYRVVSVLTVLHQDWLNGKEYKCKVSNKALPAPIEKTISKAKGQPREPQVYVYPPSRDELTKNQVSLTCLVKGFYPSDIAVEWESNGQPENNYKTTPPVLDSDGSFALVSKLTVDKSRWQQGNVFSCSVMHEALHNHYTQKSLSLSPG
chain 2: B2 chain 1 with Y353L, T368L, K394L, T396W, A407F, V409Y
chain 3: not shown
For B2, the figures for the Kd (in experiment [2]; in the experiment with CD64a (FcγRI); in the experiment with c-Met [9]) were 208 nM, 143 nM and 0.57 nM, respectively. Also, in the experiment with c-Met [10], the “fold greater Kd against control v17427” value was found to be 5 fold.
